# Numbered stars: 1 amine (or outer) side, 2 acyl side, 3 side chain; on linkers, the order of the positions; unused ones are H or OH. Bridge positions count the residues as written; N and C are the ends. * marks the point of attachment. C20 diacid = O=C(O)CCCCCCCCCCCCCCCCCCC(=O)*; γGlu = O=C(O)[C@H](CCC(=O)[*:2])N[*:1]
# T1: human amylin receptor (human, UniProt P30988 25-474; O60896 24-148, limits assumed)
# T1 construct: whole, on cells; Calcitonin receptor plus RAMP-3 gives the amylin 3(a) receptor; membranes of Amylin 3(a)/CRE-luc cells were used; also called hAmylin-R; hAmylinR
# T1 sequence (looked up) 1: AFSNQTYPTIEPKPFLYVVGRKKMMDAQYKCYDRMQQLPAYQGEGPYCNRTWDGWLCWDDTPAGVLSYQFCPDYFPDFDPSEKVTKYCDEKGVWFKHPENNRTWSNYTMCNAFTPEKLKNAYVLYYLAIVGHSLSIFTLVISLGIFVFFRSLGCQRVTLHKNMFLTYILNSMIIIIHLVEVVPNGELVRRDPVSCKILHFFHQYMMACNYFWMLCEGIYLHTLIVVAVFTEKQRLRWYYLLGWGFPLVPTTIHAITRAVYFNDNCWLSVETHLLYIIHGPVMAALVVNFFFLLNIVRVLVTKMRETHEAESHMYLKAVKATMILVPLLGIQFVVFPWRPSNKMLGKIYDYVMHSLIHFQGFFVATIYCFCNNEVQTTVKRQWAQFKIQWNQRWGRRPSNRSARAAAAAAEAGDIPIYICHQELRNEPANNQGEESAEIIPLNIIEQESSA
# T1 sequence (looked up) 2: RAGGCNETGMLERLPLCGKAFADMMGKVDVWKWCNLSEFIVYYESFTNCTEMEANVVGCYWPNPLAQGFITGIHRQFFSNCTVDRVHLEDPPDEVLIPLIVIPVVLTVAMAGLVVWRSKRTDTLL
# Target: T1, human amylin receptor
# Assay: SPA competition binding, displacement of 125I-rat amylin from membranes with human amylin 3(a) receptor (Assay V)
# Procedure: The binding assay was performed using scintillation proximity assay (SPA) beads (RPNQ0001) from PerkinElmer and cell membranes from the Amylin 3(a)/CRE-luc cells (as described in Assay (II)) were used. Membranes were prepared in the following way; the cells were rinsed with PBS and incubated with Versene for approximately 5 min before harvesting. The cells were flushed with PBS and the cell-suspension was centrifuged for 5 min at 1000 rpm. Cells were homogenized (ultrathurrax) in a buffer containing 20 mM Na-HEPES and 10 mM EDTA (pH 7.4) and centrifuged at 20.000 rpm for 15 min. The resulting pellet was resuspended, homogenized and centrifuged (20.000 rpm, 15 min) in a buffer containing 20 mM Na-HEPES and 0.1 mM EDTA (pH 7.4, buffer 2). The resulting pellet was resuspended in buffer 2 and protein concentration was measured (BCA protein Assay, Pierce). The homogenate was kept cold during the whole procedure. The membranes were kept at −80° C. until use. The assay was performed in a 384 well Optiplate (PerkinElmer) in a total volume of 40 ul. Membranes were mixed with SPA beads. Final concentration of membranes 35 ng/μL final and SPA beads was 0.05 mg/well. Test-compounds were dissolved in DMSO and further diluted in assay buffer (50 mM Hepes, pH 7.4, 1 mM CaCl2, 5 mM MgCl₂, 0.1% OA and 0.02% Tween20). […] The final mixture was incubated with shaking at 400 rpm for 120 min at 25° C. prior to centrifugation (1500 rpm, 10 min). Samples were analyzed on TopCounter™ (Packard). The IC₅₀ was calculated using (one site binding competition analysis) GraphPad Prism5 as a measure of receptor affinity.
row,IC50,Binder
1,610 pM,"{C20 diacid-γGlu}-KCNTATCATQRLANFLRHSSPNFGAIPSSTPVGSETY-NH2 (disulfide 2-7; SMILES CC[C@H](C)[C@H](NC(=O)[C@H](C)NC(=O)CNC(=O)[C@H](Cc1ccccc1)NC(=O)[C@H](CC(N)=O)NC(=O)[C@@H]1CCCN1C(=O)[C@H](CO)NC(=O)[C@H](CO)NC(=O)[C@H](Cc1c[nH]cn1)NC(=O)[C@H](CCCNC(=N)N)NC(=O)[C@H](CC(C)C)NC(=O)[C@H](Cc1ccccc1)NC(=O)[C@H](CC(N)=O)NC(=O)[C@H](C)NC(=O)[C@H](CC(C)C)NC(=O)[C@H](CCCNC(=N)N)NC(=O)[C@H](CCC(N)=O)NC(=O)[C@@H](NC(=O)[C@H](C)NC(=O)[C@@H]1CSSC[C@H](NC(=O)[C@H](CCCCN)NC(=O)CC[C@H](NC(=O)CCCCCCCCCCCCCCCCCCC(=O)O)C(=O)O)C(=O)N[C@@H](CC(N)=O)C(=O)N[C@@H]([C@@H](C)O)C(=O)N[C@@H](C)C(=O)N[C@@H]([C@@H](C)O)C(=O)N1)[C@@H](C)O)C(=O)N1CCC[C@H]1C(=O)N[C@@H](CO)C(=O)N[C@@H](CO)C(=O)N[C@H](C(=O)N1CCC[C@H]1C(=O)N[C@H](C(=O)NCC(=O)N[C@@H](CO)C(=O)N[C@@H](CCC(=O)O)C(=O)N[C@H](C(=O)N[C@@H](Cc1ccc(O)cc1)C(N)=O)[C@@H](C)O)C(C)C)[C@@H](C)O, also called 17R, 21P, 27P, 31P, 35E)"
2,577 pM,"{C20 diacid-γGlu}-KCNTATCATQRLANFLRHSSPNFGAIPSSTNVGPETY-NH2 (disulfide 2-7; SMILES CC[C@H](C)[C@H](NC(=O)[C@H](C)NC(=O)CNC(=O)[C@H](Cc1ccccc1)NC(=O)[C@H](CC(N)=O)NC(=O)[C@@H]1CCCN1C(=O)[C@H](CO)NC(=O)[C@H](CO)NC(=O)[C@H](Cc1c[nH]cn1)NC(=O)[C@H](CCCNC(=N)N)NC(=O)[C@H](CC(C)C)NC(=O)[C@H](Cc1ccccc1)NC(=O)[C@H](CC(N)=O)NC(=O)[C@H](C)NC(=O)[C@H](CC(C)C)NC(=O)[C@H](CCCNC(=N)N)NC(=O)[C@H](CCC(N)=O)NC(=O)[C@@H](NC(=O)[C@H](C)NC(=O)[C@@H]1CSSC[C@H](NC(=O)[C@H](CCCCN)NC(=O)CC[C@H](NC(=O)CCCCCCCCCCCCCCCCCCC(=O)O)C(=O)O)C(=O)N[C@@H](CC(N)=O)C(=O)N[C@@H]([C@@H](C)O)C(=O)N[C@@H](C)C(=O)N[C@@H]([C@@H](C)O)C(=O)N1)[C@@H](C)O)C(=O)N1CCC[C@H]1C(=O)N[C@@H](CO)C(=O)N[C@@H](CO)C(=O)N[C@H](C(=O)N[C@@H](CC(N)=O)C(=O)N[C@H](C(=O)NCC(=O)N1CCC[C@H]1C(=O)N[C@@H](CCC(=O)O)C(=O)N[C@H](C(=O)N[C@@H](Cc1ccc(O)cc1)C(N)=O)[C@@H](C)O)C(C)C)[C@@H](C)O, also called 17R, 21P, 27P, 34P, 35E)"
3,82 pM,"{C20 diacid-γGlu}-KCNTATCATQRLADFLRHSSPNFGAIPSSTNVGSNTP-NH2 (disulfide 2-7; SMILES CC[C@H](C)[C@H](NC(=O)[C@H](C)NC(=O)CNC(=O)[C@H](Cc1ccccc1)NC(=O)[C@H](CC(N)=O)NC(=O)[C@@H]1CCCN1C(=O)[C@H](CO)NC(=O)[C@H](CO)NC(=O)[C@H](Cc1c[nH]cn1)NC(=O)[C@H](CCCNC(=N)N)NC(=O)[C@H](CC(C)C)NC(=O)[C@H](Cc1ccccc1)NC(=O)[C@H](CC(=O)O)NC(=O)[C@H](C)NC(=O)[C@H](CC(C)C)NC(=O)[C@H](CCCNC(=N)N)NC(=O)[C@H](CCC(N)=O)NC(=O)[C@@H](NC(=O)[C@H](C)NC(=O)[C@@H]1CSSC[C@H](NC(=O)[C@H](CCCCN)NC(=O)CC[C@H](NC(=O)CCCCCCCCCCCCCCCCCCC(=O)O)C(=O)O)C(=O)N[C@@H](CC(N)=O)C(=O)N[C@@H]([C@@H](C)O)C(=O)N[C@@H](C)C(=O)N[C@@H]([C@@H](C)O)C(=O)N1)[C@@H](C)O)C(=O)N1CCC[C@H]1C(=O)N[C@@H](CO)C(=O)N[C@@H](CO)C(=O)N[C@H](C(=O)N[C@@H](CC(N)=O)C(=O)N[C@H](C(=O)NCC(=O)N[C@@H](CO)C(=O)N[C@@H](CC(N)=O)C(=O)N[C@H](C(=O)N1CCC[C@H]1C(N)=O)[C@@H](C)O)C(C)C)[C@@H](C)O, also called 14D, 17R, 21P, 27P, 37P)"
4,674 pM,"{C20 diacid-γGlu}-KCNTATCATQRLAEFLRHSSPNFGAPLSSTNVGSNTY-NH2 (disulfide 2-7; SMILES CC(C)C[C@H](NC(=O)[C@H](CCCNC(=N)N)NC(=O)[C@H](CCC(N)=O)NC(=O)[C@@H](NC(=O)[C@H](C)NC(=O)[C@@H]1CSSC[C@H](NC(=O)[C@H](CCCCN)NC(=O)CC[C@H](NC(=O)CCCCCCCCCCCCCCCCCCC(=O)O)C(=O)O)C(=O)N[C@@H](CC(N)=O)C(=O)N[C@@H]([C@@H](C)O)C(=O)N[C@@H](C)C(=O)N[C@@H]([C@@H](C)O)C(=O)N1)[C@@H](C)O)C(=O)N[C@@H](C)C(=O)N[C@@H](CCC(=O)O)C(=O)N[C@@H](Cc1ccccc1)C(=O)N[C@@H](CC(C)C)C(=O)N[C@@H](CCCNC(=N)N)C(=O)N[C@@H](Cc1c[nH]cn1)C(=O)N[C@@H](CO)C(=O)N[C@@H](CO)C(=O)N1CCC[C@H]1C(=O)N[C@@H](CC(N)=O)C(=O)N[C@@H](Cc1ccccc1)C(=O)NCC(=O)N[C@@H](C)C(=O)N1CCC[C@H]1C(=O)N[C@@H](CC(C)C)C(=O)N[C@@H](CO)C(=O)N[C@@H](CO)C(=O)N[C@H](C(=O)N[C@@H](CC(N)=O)C(=O)N[C@H](C(=O)NCC(=O)N[C@@H](CO)C(=O)N[C@@H](CC(N)=O)C(=O)N[C@H](C(=O)N[C@@H](Cc1ccc(O)cc1)C(N)=O)[C@@H](C)O)C(C)C)[C@@H](C)O, also called 14E, 17R, 21P, 26P) [N^α1-[(4S)-4-carboxy-4-(19-carboxynonadecanoylamino)butanoyl]-[Glu14,Arg17,Pro21,Pro26]-h-amylin]"
5,105 pM,"{C20 diacid-γGlu}-KCNTATCATQRLAEFLRHSSPNFGAIPSSTNVGSDTP-NH2 (disulfide 2-7; SMILES CC[C@H](C)[C@H](NC(=O)[C@H](C)NC(=O)CNC(=O)[C@H](Cc1ccccc1)NC(=O)[C@H](CC(N)=O)NC(=O)[C@@H]1CCCN1C(=O)[C@H](CO)NC(=O)[C@H](CO)NC(=O)[C@H](Cc1c[nH]cn1)NC(=O)[C@H](CCCNC(=N)N)NC(=O)[C@H](CC(C)C)NC(=O)[C@H](Cc1ccccc1)NC(=O)[C@H](CCC(=O)O)NC(=O)[C@H](C)NC(=O)[C@H](CC(C)C)NC(=O)[C@H](CCCNC(=N)N)NC(=O)[C@H](CCC(N)=O)NC(=O)[C@@H](NC(=O)[C@H](C)NC(=O)[C@@H]1CSSC[C@H](NC(=O)[C@H](CCCCN)NC(=O)CC[C@H](NC(=O)CCCCCCCCCCCCCCCCCCC(=O)O)C(=O)O)C(=O)N[C@@H](CC(N)=O)C(=O)N[C@@H]([C@@H](C)O)C(=O)N[C@@H](C)C(=O)N[C@@H]([C@@H](C)O)C(=O)N1)[C@@H](C)O)C(=O)N1CCC[C@H]1C(=O)N[C@@H](CO)C(=O)N[C@@H](CO)C(=O)N[C@H](C(=O)N[C@@H](CC(N)=O)C(=O)N[C@H](C(=O)NCC(=O)N[C@@H](CO)C(=O)N[C@@H](CC(=O)O)C(=O)N[C@H](C(=O)N1CCC[C@H]1C(N)=O)[C@@H](C)O)C(C)C)[C@@H](C)O, also called 14E, 17R, 21P, 27P, 35D, 37P)"
6,554 pM,"{C20 diacid-γGlu}-KCNTATCATQRLAEFLRHSSPNFGAIPSSTNVGSHTY-NH2 (disulfide 2-7; SMILES CC[C@H](C)[C@H](NC(=O)[C@H](C)NC(=O)CNC(=O)[C@H](Cc1ccccc1)NC(=O)[C@H](CC(N)=O)NC(=O)[C@@H]1CCCN1C(=O)[C@H](CO)NC(=O)[C@H](CO)NC(=O)[C@H](Cc1c[nH]cn1)NC(=O)[C@H](CCCNC(=N)N)NC(=O)[C@H](CC(C)C)NC(=O)[C@H](Cc1ccccc1)NC(=O)[C@H](CCC(=O)O)NC(=O)[C@H](C)NC(=O)[C@H](CC(C)C)NC(=O)[C@H](CCCNC(=N)N)NC(=O)[C@H](CCC(N)=O)NC(=O)[C@@H](NC(=O)[C@H](C)NC(=O)[C@@H]1CSSC[C@H](NC(=O)[C@H](CCCCN)NC(=O)CC[C@H](NC(=O)CCCCCCCCCCCCCCCCCCC(=O)O)C(=O)O)C(=O)N[C@@H](CC(N)=O)C(=O)N[C@@H]([C@@H](C)O)C(=O)N[C@@H](C)C(=O)N[C@@H]([C@@H](C)O)C(=O)N1)[C@@H](C)O)C(=O)N1CCC[C@H]1C(=O)N[C@@H](CO)C(=O)N[C@@H](CO)C(=O)N[C@H](C(=O)N[C@@H](CC(N)=O)C(=O)N[C@H](C(=O)NCC(=O)N[C@@H](CO)C(=O)N[C@@H](Cc1c[nH]cn1)C(=O)N[C@H](C(=O)N[C@@H](Cc1ccc(O)cc1)C(N)=O)[C@@H](C)O)C(C)C)[C@@H](C)O, also called 14E, 17R, 21P, 27P, 35H)"
